According to the DeepSol protein solubility set:

assay: soluble on expression in E. coli; label from the status in PepcDB or PDB records

**Q.** Which “soluble on expression in E. coli” value does the source give for “MGSDKIHHHHHHMGFIEVQQQFMDYIRDPSLPLPEGIEPRRMKIYRELFFNNIAGFVSSAFPVLKSVYEDDQWQALVQQFFVSHDCKTPIFVEIAGEFLAFLQHEYQMTEDDPVFMLQLAHYEWLELCVAVAPDTPAAQSINTIELNLHRLCLAACAKVAQYAFDVQHISVDYQPIEPTAQANFFCVFRGADDEVAFLQLTPLSAQVLAYIEQMTHSQQGVTVDAIISWLSEHYPQMPNDTLLSGCLPLLQQLAQKGIVISSIES” here?
**A.** not soluble

**Q.** With “MGSDKIHHHHHHMGIRNSKTFTSTDIATYYDVSEDHYMYFWDLNQSHSLHYGYWDASTKTFREALANINRVLAEKASITAGTRVLDAGCGVGGSSIWLAKNKQANVTGITVSKKQAARANTSAAAVNPGGTAVFDVQDYTNTPYHSESFDVVWAIESVCHAANKEDFIKEAYRLLKPGGQLIMADFFIVKDGNADDQRSIDAWGHGWAVPFFEKKDAFQHMLLKAGFNTADMIDSTEHIRRSAKRLYYAFFPGWIISKLYNLVNRRTTEFSKNNVYTAYYQYKTLKKELWKYYIVHAKK” as the sequence, how does the “soluble on expression in E. coli” value read?
**A.** not soluble

**Q.** For “MGSDKIHHHHHHMGMDFKVPDYMQELALASGQGLDQLSAVLARILDHPVLISSSAYKLFSSSSHYDFESFHIYSNQPRTGSDALFTCHILTDTMQSLALGRVVAPFGRTLGYIFMLTDDDSPDPTHFKPLLDYAASLCAVHLQNRLELKQEQSKFKNAFLYDLIYGNLKRNDEIIATGELWGWNFRRPHTIMVFLLPEPDFYTTEWHLMDVLSRIVEQNFIEIYYKNPAVILRQNELILFVPMQTDKPAVQTEELLVFADKILSQVQNTELKGLAACGVGQAYSEATVLFRSYQEAKVALEMGKLLGIPIPFFRDLGLERILYKHDLQDLKEYYLHVLGELHKQDDQDSSLVTILESFAENQFDVGKTAKALFMHPNTLRYRLNKIENILGKPLTDNHARLDIMAAFKIKRLHTIETLLA”, which “soluble on expression in E. coli” value is on record?
**A.** not soluble

**Q.** For “MGSDKIHHHHHHMGNTQWQRLLQIEIHDKNGKNRVLLRADSGRLDRLEIHFTAPFSDSPNPSEVSVTIYNLNKKSIDFIKKGNPVYIHAGYAGTSNGVITSGTIAEVKPSVLNGVDRATTFTFLEGKDYSEQKEVNITFNNGTDAHTIINRVAREANIPLSEIKLKNNKIYGSGYTADGQAMMVLEEISKACDTSLYFKRGQLVIKNFRDGNKERYRLSPETGLINQPTKVESHDYTGWSVECLLQHKITTGTAVYIDSKNVKGNFYVKNGQHSYDGSRFVTTCEVVT”, which “soluble on expression in E. coli” value is on record?
**A.** not soluble

**Q.** Which “soluble on expression in E. coli” value does the source give for “MGSDKIHHHHHHMGNVASSEVINQLEAWYQAIKRLQLAEATTIKHEVMQAIDGMDQDRKVFLYYHLIDSRYHLLIHQWDYAGAILKGLKAQVELKETDKLLRYYYYFFSGLYEFHTKQYIEAIHFYRLAESLLKDIPDDIEQAEFNYQLAVAYYEIDQHFVSMDHAEKALELYLQNDQYKNRVATTQMIVAANQLDLYQFASAEALYKNAIELASDVQDFFVKGMGYYNLGVCYDRQDKLDLARECFESALYVDLPKSQYQGVMVGTKYMLARVLFKQGILEEGMHWFEEAKALADEMKDASYQAKLSTIHSIYKERDEVEIDDGLRVLKEGKLWSDVFELAINAARHFQEKEDYSLAAKYFDEGLVAKDQIKAWKEDTAST” here?
**A.** not soluble

**Q.** Which “soluble on expression in E. coli” value does the source give for “MGSDKIHHHHHHMGPVGYTTLDTAVVERRLGVERLGYRVVGEGYVYRHKYKAGGQRVSTLIGRPEPLDPARVLRVLSAGAYNVVLISPLHGEDDGGLASYIHNNFSAITAVDLQGYYRGYASVWTPPTARIGSLAHISSDDASDPPREPMANIIVYTRGEAGGEVLSPSGSLTIPPPPKLVEDPTGAGDIFTMVFAIMLFRGAPPGPAAEEAAAKTPEILESIRGDEGFQYSVPHSPSEAFWI” here?
**A.** not soluble

**Q.** With “MGSDKIHHHHHHMGSAAQFRRWIRPSARLCNAPFIRATVQVHWRNLYLLSRRSAPRRFHADQEKDMTPRSIIAAGALFAAVATAPAAWASSTYMGALTEAEVLAAQKAWGEALVAISREHEAGGQAKAKALASTVLDKAYGYNLGPVLFKPTLTMAPQTFRTTKDGALAYFVGGDPNYPNDKGFALQGWRSVAIKNAAIQIHGDVATTTGNVMITDKNGNVTTVDKTWAFKKTDDGAIRIVVHHSSLPYTAK” as the sequence, how does the “soluble on expression in E. coli” value read?
**A.** not soluble

**Q.** For “MGSDKIHHHHHHMGSGSVIWRLLPPAQGDPTTELAAGAAMLAGLKETNCPAIRWYAAGSRPALVIGSGQKLSDVDHTALRQQGVTLHRRSSGGTAVLFVPGLLMQDIALPLDHPLYHPDVSESYRWLGDVWQATLAQFGIHTSLIDIAAARADRQTLDPLIARACFGGQSPYEVLVAGRKLVGFAQIRRREGVLFQVGLYTHWPGRQLATLLAMNEAERTIFGERLADRVTDLVTVCESPPDIHQIAAAFAMVLRQRYEVSITAADWTEAEREAMIAAQARFAPLRLEG”, which “soluble on expression in E. coli” value is on record?
**A.** not soluble

**Q.** Which “soluble on expression in E. coli” value does the source give for “MGSDKIHHHHHHMGSKKLTVGSDSHRLSKSSFSSNKSSHSATKDQPIDTDDIDEDDESGHNIILNIISQLRPGCDLTRITLPTFILEKKSMLERVTNQLQFPEFLLQAHSEKDPLKRFLYVMKWYLAGWHIAPKAVKKPLNPVLGEYFTAYWDLPNKQQAYYISEQTSHHPPECAYFYMIPESSIRVDGVVIPKSRFLGNSSAAMMDGSTVLQFLDIKDGNGKPEKYVLTQPNVYVRGILFGKMRIELGDHMIIKSPNFQADIEFKTKGYVFGTYDAIEGTVKDYDGNAYYEISGKWNDVMYLKDLKQPRSSPKVFLDTHKESPLRPKVRPLSEQGEYESRKLWKKVTDALAVRNHPVATEEKFQIEDHQRQLAKKRIEDGVEFHPKLFRRSKPGEDLDYCIYKNIPVDEDPEKQIRSILQIAPILPGQQFTDKFFIPAFEKIKSQKKMIENEKQNPAKQ” here?
**A.** not soluble

**Q.** For “MGSDKIHHHHHHMGSTFMGIETGRRALTTNQWALQSTGNNIANAGTAGFSRQRLVMATTEQLSMAIGTGKMGQIGTGVRGEILERVRDVMLDKQYRDEATKTAYYGTKEAAFGRMEDIINEPSDTGLAKAFDGFWESLQTLSTNPQDSGARSVVRQKAETLTQTFNYMSKSLSQVKEDLKSEIDVSTKKVNDLFKKIHNINAEIHTVEPLGVLPNALYDERDRYMDELAQYVDFEKVSVDAEAITQGKLGNATKTAEGRIDILVKLPNGNKLRAVDSDVAQAGILSFTTNDKGLYTGFETNSQTISFDAAGGGFANGRIAGLLEMYGQIKNGQPTGEFVKMQSNLDEMATTFATAFNAAHAANFKKDKTNGTDQFFVATSGSISAATIAVGQDIKGSLDNIATSTDGNIGDSAGALKLAQMKTTSLLFATSVTTTTIGSFYQNVIGDMGVATDQVGRLGQSSAVLMDSAEQRRMSVSAVSIDEEMTMMIQYQHAYNAAARNITTVDEMLDKIINGMGIVGR”, which “soluble on expression in E. coli” value is on record?
**A.** not soluble

**Q.** Which “soluble on expression in E. coli” value does the source give for “MGSDKIHHHHHHMGVQETKIYPINTGWLEADLGTYIFWKGPAGQKIWNPVYCHYVDTGTHKILIDTGLCDEERATKYHHKCDKRGCLQVHEHLEQKLGVHPDEIDAVVFTHLHWDHVQNMKEFKNARYIAPKAEIEMAFNPLPLYYRTYESGYLGIEPAYTGCVFEAVEDECEVLPGITMFHTPGHSVGHMAVTVATSAGDIVVAGDAIFQERNMEPNEAEGWRYWVPARFVNSYEGWKSVEELDKRADYILACHDKVANARSNVFPYEGMPIRKRRQHIPGFKFYFGDMPAGATDKAAPALTADEAKEYLANLVPPTPD” here?
**A.** not soluble

**Q.** Which “soluble on expression in E. coli” value does the source give for “MGSDKIHHHHHHMGVSKRTVMRYQTCREPGSLSASDKFKSVEAALESHVKEEEARYSGKGRGDGSLWHHLVRVARLAEKLGRSEGLDPATCRLAGLFHDAGKFSGGTYHQDDRPEEERSVDILVELAGKHDLDRDIVDRIARSFQQLYRDGENQTPLTRVLFDADNLDKLGFLGIANYFIKTGLRGKGVSANMLYQLTAELTYARHAADCMATPAGRELALRKAPETYRFILDLLQSLRDDGIFDFKVEEVMFDQLLLDVVSPYSCECRGTLERRLWNVRGIKCLEIHLEHSCPRCEARHEIRFCTPKLRTQGEKNTGDLFRTSQLDIRQAADSYF” here?
**A.** not soluble

**Q.** With “MGSDKIHHHHHHMGYLKTMVDVMTTEMNAIRCLIDEAGIEYESIVSEIANCEGKVIFMGVGKSAHIGKKLAATFASTGTPSFFVHATEAVHGDLGMIESKDITILISNSGNSMEVVNCIKYIKAIGSKTIAFTSNRNSVLAKECDYALIYPAKDEADHLNLAPTTSSTITLVLGDSIACALSKSSNFGSSDFYKYHPGGSLGEKLKTANNG” as the sequence, how does the “soluble on expression in E. coli” value read?
**A.** not soluble

**Q.** For “MGSDKIHHHHHHMHHWESLVGEQAIPFFRWRWLAALEDSSSISAKHGWQPLHLALWRDDMPVAVAPLYLKGHSYGEFVFDQAFARLAGDLGLGYYPKLLGMSPVSPVQGYRFYVAPGENEAELTVLMLETIDAFARRNQILSCNFLYVDPHWRPLAEAAGCATWLNQQSLWSADGQSDFSAYLNSFNANQRRNIKRERKAVQQAGLTVSALTGVELDVQLLRCMHGFYEQHCARWGPWGSKYLSEAFFEALADSSLRDQVVLFSAHRVSPREPVAMSLCIQDGQMLWGRYWGSKEEIDCLHFEVCYYAPIAWALENGLENFDPGAGGQHKRRRGFVAKPHASLHRWYEPRMDALIRGWLRKVNPLMLEEIESANADLPFRVEPAPQLIVE”, which “soluble on expression in E. coli” value is on record?
**A.** not soluble

**Q.** Which “soluble on expression in E. coli” value does the source give for “MGSDKIHHHHHHMHISNMDGLDILSLKILVSLYENKSATYVSKALDIPAPKISRSLKNLREIFGDELFIRRKYGLFPNEFATHLYPIAKEAIECTDKFHKARAANANLVKTHIEIAAPGLIAYAFPKALMQAIKDEQKLMHINITPWSMHTTQDIINGDTTLGICCNKSTADVAAFGDKLLTTTLQSMDKVYLLASRNHPIFKREITLETIAEYPYVNTDLGNPSSKLSPYQEFCLKSNIKLNTEITITSISSLFEYLGESQALSLLPYRVVYEMVSDVAELHTCQLSQLEAERLYAHAEAPTIFLVQKNQPNKVNDDLVWLSGQIKKIVDHII” here?
**A.** not soluble

**Q.** With “MGSDKIHHHHHHMHPKNAWYVACTADEVADKPLGRQICNEKMVFYRDQNQQVVAVEDFCPHRGAPLSLGYVENGQLVCGYHGLVMGGDGKTASMPGQRVRGFPCNKTFAAIERYGFIWVWPGEREKADPALIHHLEWAVSDEWAYGGGLFHIQCDYRLMIDNLMDLTHETYVHASSIGQKEIDEAPPVTTVEGEEVITARHMENIMPPPFWKMALRGNNLADDVPVDRWQICRFTPPSHVLIEVGVAHAGKGGYHAPHEFKASSIVVDFITPETDTSIWYFWGMARNFKPADEQLTATIREGQHKIFSEDLEMLERQQLNLLQHPHRNLLKLNIDAGGVQSRKILERLIAAEQADTADQIPVAAVK” as the sequence, how does the “soluble on expression in E. coli” value read?
**A.** not soluble

**Q.** For “MGSDKIHHHHHHMHQLKREALLREAIAAFNQKGFHATSLGDIATSLGVTKAALYHYFPNKHALLFEAFAEALRVGFEAIEAAERHGGSGLDKLQMAVREYLQVTLSEMSRCVIITEEHALEPQDRAKIVEQRDRFEAKLRGFVREGIEDGSVIPCDPKLAIFSIFGAVNWVPKWFSDSGNWSNKQLAKGMSELLCRAVARHPAEAFAPDIGKMRVE”, which “soluble on expression in E. coli” value is on record?
**A.** not soluble

**Q.** For “MGSDKIHHHHHHMHQYTNIKKAIQLSNSFWDVTTAAGMANIATRNLGNGRHEAVASGRQFTNMSSYSYLGLDSHPAILRAAADAVMNTGSLNTSISRIRVQFDILQQAEEALASLVDAETLTVPSCAAAAAATLPLLASGALTGDVAPLMVFDKNAHFCLNMMKPICADETEIQTIRHNDLNALEDLCKTHQRVAYVADGVYSTGGMAPVKELLALQDKYGLFLFFDEAHGLSTLGHLGRGLVLEEMGAINDRTLIVTSLNKGFGASGGAIFLGPRGDAERRKLATRFGGPVTWSQRINTAGLGAIIESVAVHKSAELPALQQKLQDNIRLFDQHVASENSGDRLPIRFVSIGSEERTILYAKSLLEDGYYTSPIFFPVIAKGRAGLRIMIRANMTTEEIERFGACLKQLRASHE”, which “soluble on expression in E. coli” value is on record?
**A.** not soluble
